Experiment: label from the status in PepcDB records

**Q.** For “MRFGRFLAVVACATLLAACASTPTPPAGELSGTPTALESGPKKDPLNTLNSTGRAGTLSRSTVVNVDQSSVDWLRGPSSDIWDRIRKGFAMPDLEGTLVDDRTQWYAARPDYMERMVGRSSRYLYHIVEELERRKMPTELALLPFVESAFNPQAESTAKAAGMWQFIPSTGKTYNLKQNMFRDERRDVLASTDAALDYLQRLYDMFGDWQLALAAYNWGEGAVSRAIARNQARGLPTDYASLTMPTETRYYVPKLQAVKNIIANPAAYGVRLPEIPDHPYFVTVTTSRDIDVALAAKLANMPLDEFKALNPSFNRPVILGAANPQILLPFENAERFQYNLNTYRGGLSSWTAVTVDSRERVESLAARLNVDVDTLREINRIPKGMRLKAGSTVMIPRTERHDQDISASLVDTAMLAVEPDVPDAKRVVVRAGRKDTVSTVARRYGVSVKQVQSWNKLSGSKLVAGQSLVLMLRPNSAAAMRAERAGDEDDTPAKAAPHGKSGGKTQAVAKSEKYDKVEKSSRSAKAEPRKRVVVEASPHSSTSKSSGKSATRESKSSPTPATKSKSSRAQ”, which protein production is on record?
**A.** failed

**Q.** For “LGGVAPEQVAYAVEQAGKRLQERDNAGVKVRPARLTDLDALEGMVAYWAGLGENLPRNRNELVRDIGSFAVAEHHGEVTGCASLYVYDSGLAEIRSLGVEAGWQSQGQGKAIVQHLVEKAREMAIKKVFVLTRVPEFFMKQDFIPTSRSLLPEKVLKDCDQCPRQH”, which protein production is on record?
**A.** failed

**Q.** Which protein production does the source give for “LYDQGGPVEILPFLYLGSAYHASRKDMLDALGITALINVSANCPNHFEGHYQYKSIPVEDNHKADISSWFNEAIDFIDSIKNAGGRVFVHCQAGISRSATICLAYLMRTNRVKLDEAFEFVKQRRSIISPNFSFMGQLLQFESQVLAPHCSAEAGSPAMAVLDRGTSTTTVFNFPVSIPVHSTNSALSYLQSPITTSPSC” here?
**A.** failed

**Q.** With “MPRWLPRAMVLALALIAAFQLGSWAFHQLTGLLINVLIAFFLALAIEPAVSWMAGRGMRRGFATFLVFLAVLIAAAGFVTLLGSMLAGQIVKMVEEFPDYLDSVINWVNGHFHTELRRVDIQEGLLRSDWLRNYVQNSATGVLDVSAQVLGGLFQLLTVLLFSFYFAADGPRLRRGLCSVLPPARQAEVLRAWEIAVDKTGGYLYSRGLMALVSGVAHYILLEILEVPYAPALAVWVGLVSQFIPTIGTYLAGALPMLIAFTVNPWYALWVLVFVVIYQQFENYVLQPKLTSKTVDIHPAVAFGSVIAGTALLGAVGALIAIPAVATLQAFLGAYVKRYDVTDDPRVHGRRGRRSVSGTSTRLRKLWTRRPEPGLEGPERTEGPERTEGGEGTDGTRDGGSS” as the sequence, how does the protein production read?
**A.** failed

**Q.** Which protein production does the source give for “MLPLEPYLTQTSAVPQMSHFMCHSPTHKPQGLLPWAPFHQASVSLYPISPWPSESVCPPTCPGGASCWFPAGNAWDRVELGFLGFGAGGVSIAVPGFPLSCGQGCCAGGWLGHGARFPAKLRAFPQVIRRGWLTINNISLMKGGSKEYWFVLTAESLSWYKDEEEKEKKYMLPLDNLKIRDVEKGFMSNKHVFAIFNTEQRNVYKDLRQIELACDSQEDVDSWKASFLRAGVYPEKDQAENEDGAQENTFSMDPQLERQVETIRNLVDSYVAIINKSIRDLMPKTIMHLMINNTKAFIHHELLAYLYSSADQSSLMEESADQAQRRDDMLRMYHALKEALNIIGDISTSTVSTPVPPPVDDTWLQSASSHSPTPQRRPVSSIHPPGRPPAVRGPTPGPPLIPVPVGAAASFSAPPIPSRPGPQSVFANSDLFPAPPQIPSRPVRIPPGIPPGVPRRPPAAPSRPTIIRPAEPSLLD” here?
**A.** not failed

**Q.** For “MATFDTRHRTALTMSADRLEQLKTFHEEDPEDPFTRYALAQEHLKHDNASRALALFEELVETDPDYVGTYYHLGKLYERLDRTDDAIDTYAQGIEVAREEGTQKDLSELQDAKLKAEGLEHHHHHH”, which protein production is on record?
**A.** not failed

**Q.** With “MERFNMKLTRKKFTGNLLRSLAVLLLFSLVVCTAAGEELYFEPQEAVFSDTGSVASLSLYLDQAPSGLAGYKLNLSISDPSVAQITGVEFPSWSGINNSSSLPADLVQIKAVDLEEKINAGDLDVFLGTVTVESLASGEANLTVSVDRLDDDSENTISVTVREAKLTSGTTSENPVVSILPAESTLSSGASQVFEIRADKFTEGISGYDFNLTLENPAVGKFTNVEYPSWVGLSENSSMPNTSIKVKAVDTNDVVKAGDENVLLANVTFVAETPGESEISLTFNRLDDDSGSNINAVAEASSVKVQGSSTLPVAKFTATPTSGDSPLTVQFTDESTGSPTAWTWDFGDGATATEQSPSHTYTSAGNYTVNLTVTNDGGSDSEVKTDYITVSESSTPTEPEPVAAFTADVTNGTVPLTVNFTDQSTEAPTSWAWDFDNDGTVDSTEQNPSYTYTSAGTYTVNLTVANAEGSDSEVKIDYITVSESSTPTEPEPVAAFIADVTNGTVPLTVNFTDQSTGSPTSWLWDFGDNTSATEQNPSHTYNSAGNYTVNLTVISESGNSSEVKADYITVSESSTPTEPEPVAAFTADVTNGTVPLTVNFTDQSTGMPTSWAWDFDNDGNMDSTEQNPSYTYTAEGNYTVNLTVSSEVGSDSEVKVEYITVTDSSTTPEARPDLIVSSIIPPSSITANTSCNIGATISNTGESDAGTFNATLSVNGAVVDTHAVSGIVSGSSATVNFSWKPVAAGYYSVKVSADAGNVIAESDETNNELADCIKVEEASSGSQSQNGSSSVSLNVTIVPVVCFEVSPSALKFGELSAGQTSEPQLLTLKNCGVSGIKVTAEVSDSSAEDNLFGLGLLLDSQIWSDYCNVIGSNSQENATAALHVPSDYTGTGNKKGTITFWAEVAE” as the sequence, how does the protein production read?
**A.** failed

**Q.** For “MNEKFNINIAWFLIILGGIIECFWVSGLKYSTEIWHYILTAIGVCISFTCFLKACERLEVSITYSVFVGIGTIGVVLNEMFIFNEAVSIIKLVLIAILLLSIIALKWVSKEA”, which protein production is on record?
**A.** failed

**Q.** Which protein production does the source give for “MADNYVIWFENLRMTDVERVGGKNASLGEMISQLTEKGVRVPGGFATTAEAYRAFLAHNGLSERISAALAKLDVEDVAELARVGKEIRQWILDTPFPEQLDAEIEAAWNKMVADAGGADISVAVRSSATAEDLPDASFAGQQETFLNINGLDNVKEAMHHVFASLYNDRAISYRVHKGFEHDIVALSAGVQRMVRSDSGASGVMFTLDTESGYDQVVFVTSSYGLGENVVQGAVNPDEFYVFKPTLKAGKPAILRKTMGSKHIKMIFTDKAEAGKSVTNVDVPEEDRNRFSITDEEITELAHYALTIEKHYGRPMDIEWGRDGLDGKLYILQARPETVKSQEEGNRNLRRFAINGDKTVLCEGRAIGQKVGQGKVRLIKDASEMDSVEAGDVLVTDMTDPDWEPV” here?
**A.** not failed

**Q.** With “MTQPELTPAQRTEVELLARGRADKSRVLRDLKLPETPEAAHALLLRLGVWDEARTPYADRLRAALNAVELPVPDFDPAEERLDLTHLPTFAIDDEGNQDPDDAVGVEDLGGGLTRLWVHVADVAALVAPDSPLDLEARARGATLYLPDRTIGMLPDELVAKAGLGLHEVSPALSICLDLDPDGNAEAVDVLLTRVKVQRLAYQEAQARLEAGEEPFVTLARLARASRRLREGEGALSIDLPEVRVKADETGASVFPLPKPEMRTVVQECMTLAGWGTAIFADDNEIPLPFATQDYPTREVAGDTLPAMWARRKTLARTRFQPSPGPHHGMGLDLYAQATSPMRRYLDLVVHQQLRAFLAGRDPLSSKVMAAHIAESQMNADATRQAERLSRRHHTLRFIAAQPERVWDAVVVDRRGAQATLLIPDLAFDVQVNTPAAPGTALQVQFADIDLPQMRVRARSVLEHHHHHH” as the sequence, how does the protein production read?
**A.** not failed

**Q.** Which protein production does the source give for “MSIEVPISIPKTLIIIPAYNEEEAIADTLTRLLELKQHFTALSICVINDGSQDKTAQIVKNFPVHLINLPYNLGIGSAVQTGYKYAYENGYDIAIQFDADGQHNPDDLYKIIQPIAEGQCDMVLGSRFTEKTAYKGSISRRIGIFYFTALLKVLTKQTFMDPTSGYRAINREVITIFAHNYPKDYPEPEVLIHLKKKKLRINEISVNMQERQGGQSSITPLKSAYYMIKVSLAILMQKIVKGLEHHHHHH” here?
**A.** failed

**Q.** Which protein production does the source give for “MSLEEELRRETLKWLERIEERVKEIEGDEGFMRNIEAYISDSRYFLEKGDLVRAFECVVWAWAWLEIGLEVGKLHETAEGHHHHHH” here?
**A.** not failed

**Q.** Which protein production does the source give for “MSSTAPASQSTAEALEATASLPQAAVHDHASIMRVIGGIVLCILLAALDQTVVIPAVPAIANDLNGFGHLSWIVTAYLIVSTVTTPLYGKLSDSFGRRRLLMVAISLFILASVACALAQTLPQLILFRALQGLGGGGLMSLAQAAIADVVAPRERGRYQGYLATVWAISSIAGPLVGGWVSDHMSWRWLFWINVPLGLLAMTMCYRGLAHLKPRGGRPQVDWLGALLLAVAIVAFLLAMSWGGEAFAWISPEMAALLAISLVAVLLLAWQERRAADPMLPPRLFRNRAYVMGVGASALAALNIFLCIFALPLHFQLVRDADASMSGLLVVPFLLATVAGNFVVAWLAPRLGRMRVILTIGFVAAAVGLVSLAAVTVAVPTFFVLLAMTIGGIGLGMAMVGTLISVQNALERRDMGAGTGALLVLRSLGSSIGGALAGTLLAMEFRDALARAGVTQALDLGALRHGSEALAHLSPAVRHVLAGGVESGFHLIFAAGAVATIIALLIVRRMPDLELRSSVTEHAAKIHME” here?
**A.** failed

**Q.** Which protein production does the source give for “MLRRALEEAIAQALKEMGVPVRLKVARAPKDKPGDYGVPLFALAKELRKPPQAIAQELKDRLPLPEFVEEAVPVGGYLNFRLRTEALLREALRPKAPFPRRPGVVLVEHTSVNPNKELHVGHLRNIALGDAIARILAYAGREVLVLNYIDDTGRQAAETLFALRHYGLTWDGKEKYDHFAGRAYVRLHQDPEYERLQPAIEEVLHALERGELREEVNRILLAQMATMHALNARYDLLVWESDIVRAGLLQKALALLEQSPHVFRPREGKYAGALVMDASPVIPGLEDPFFVLLRSNGTATYYAKDIAFQFWKMGILEGLRFRPYENPYYPGLRTSAPEGEAYTPKAEETINVVDVRQSHPQALVRAALALAGYPALAEKAHHLAYETVLLEGRQMSGRKGLAVSVDEVLEEATRRARAIVEEKNPDHPDKEEAARMVALGAIRFSMVKTEPKKQIDFRYQEALSFEGDTGPYVQYAHARAHSILRKAGEWGAPDLSQATPYERALALDLLDFEEAVLEAAEERTPHVLAQYLLDLAASWNAYYNARENGQPATPVLTAPEGLRELRLSLVQSLQRTLATGLDLLGIPAPEVM” here?
**A.** not failed

**Q.** With “MASYYEILDVPRSASADDIKKAYRRKALQWHPDKNPDNKEFAEKKFKEVAEAYEVLSDKHKREIYDRYGREGLTGTGTGPSRAEAGSGGPGFTFTFRSPEEVFREFFGSGDPFAELFDDLGPFSELQNRGSRHSGPFFTFSSSFPGHSDFSSSSFSFSPGAGAFRSVSTSTTFVQGRRITTRRIMENGQERVEVEEDGQLKSVTINGVPDDLALGLELSRREQQPSVTSRSGGTQVQQTPASCPLDSDLSEDEDLQLAMAYSLSEMEAAGKKPAGGREAQHRRQGRPKAQHQDPGLGGTQEGARGEATKRSPSPEEKASRCLIL” as the sequence, how does the protein production read?
**A.** not failed

**Q.** Which protein production does the source give for “MITNKKCKGCGAFLNDQINTIGYTPKINETKTNLCQRCFKLIHYNKLEKVSTNLNQSIKETINTLNFSNLQIFAVLDILDLEHTIIDELKEYQNKIIFLVNKIDLLPQRYNSELVNENVVKTLINHGFIDPKIIYVSTHSNTSLKKVMDYIKNATNKKQKSIFFGKSNVGKSSLINALLALNKIKTKLTISSYTNTTINLNKINIQEHQILDAPGVCFDENILNYVRDEDNKSIMISYGAKAINYQINPQQALMISGLVGIQYLKGQKTTFTLYVSSQLDIHRCKLENFIMNFNKRYLLAKFNYLNQDLEFVDHLITLNKDQKTNICIAGLGLLVINAHAEQICIRLPKSVGLKVAKYAII” here?
**A.** failed

**Q.** Which protein production does the source give for “MAPLNYKTITSRSILSKVLVRATQQWPTDKTLNKQLSELYGAYVNSFVSKFKDKHVITISLEVVNEKFLKDKTPLFEKGLDTLKEIIWNPLIKDRCFDHTYVAQEKSLLSKKLEAMEDNKAQYSFLQLMNYMFKQEPYRYIATGQLEQIPQVTSESLYDTYLSMVQNDDCAIYVVGNINKEEVTQLILDKFAIKPFYLENKESTEITPSFDQPQYIIEKDDVDQAKLNLGYRFPSYYGKSNYYAFIVLNMMFGGDPSSVLFNEVREKQSLAYSIHSQIDGKNGFLFVLSGVSAEKYEQAKDTVIKEFDKIKNGDFDSNKIELAKKIIISHRHEASDRPKSIIEILHNQLLLNRQQTDQDFINAVNQVTKKDVIKLANEAVLDTIYVLTKGDQH” here?
**A.** failed

Reference: a protein production outcome set (Wang et al. 2014)
